Assay [1] addresses cation-independent M6P receptor (CI-MPR), on an affinity column (UniProt P08169). Kind of assay: CI-MPR affinity column.
The target is the same in assay [2]. Kind of assay: CI-MPR affinity column. This is another data set of the same source.

Like-named read-outs stand apart in the source and are kept apart here.

Chain of UniProt P08169 (P08169 45-2499): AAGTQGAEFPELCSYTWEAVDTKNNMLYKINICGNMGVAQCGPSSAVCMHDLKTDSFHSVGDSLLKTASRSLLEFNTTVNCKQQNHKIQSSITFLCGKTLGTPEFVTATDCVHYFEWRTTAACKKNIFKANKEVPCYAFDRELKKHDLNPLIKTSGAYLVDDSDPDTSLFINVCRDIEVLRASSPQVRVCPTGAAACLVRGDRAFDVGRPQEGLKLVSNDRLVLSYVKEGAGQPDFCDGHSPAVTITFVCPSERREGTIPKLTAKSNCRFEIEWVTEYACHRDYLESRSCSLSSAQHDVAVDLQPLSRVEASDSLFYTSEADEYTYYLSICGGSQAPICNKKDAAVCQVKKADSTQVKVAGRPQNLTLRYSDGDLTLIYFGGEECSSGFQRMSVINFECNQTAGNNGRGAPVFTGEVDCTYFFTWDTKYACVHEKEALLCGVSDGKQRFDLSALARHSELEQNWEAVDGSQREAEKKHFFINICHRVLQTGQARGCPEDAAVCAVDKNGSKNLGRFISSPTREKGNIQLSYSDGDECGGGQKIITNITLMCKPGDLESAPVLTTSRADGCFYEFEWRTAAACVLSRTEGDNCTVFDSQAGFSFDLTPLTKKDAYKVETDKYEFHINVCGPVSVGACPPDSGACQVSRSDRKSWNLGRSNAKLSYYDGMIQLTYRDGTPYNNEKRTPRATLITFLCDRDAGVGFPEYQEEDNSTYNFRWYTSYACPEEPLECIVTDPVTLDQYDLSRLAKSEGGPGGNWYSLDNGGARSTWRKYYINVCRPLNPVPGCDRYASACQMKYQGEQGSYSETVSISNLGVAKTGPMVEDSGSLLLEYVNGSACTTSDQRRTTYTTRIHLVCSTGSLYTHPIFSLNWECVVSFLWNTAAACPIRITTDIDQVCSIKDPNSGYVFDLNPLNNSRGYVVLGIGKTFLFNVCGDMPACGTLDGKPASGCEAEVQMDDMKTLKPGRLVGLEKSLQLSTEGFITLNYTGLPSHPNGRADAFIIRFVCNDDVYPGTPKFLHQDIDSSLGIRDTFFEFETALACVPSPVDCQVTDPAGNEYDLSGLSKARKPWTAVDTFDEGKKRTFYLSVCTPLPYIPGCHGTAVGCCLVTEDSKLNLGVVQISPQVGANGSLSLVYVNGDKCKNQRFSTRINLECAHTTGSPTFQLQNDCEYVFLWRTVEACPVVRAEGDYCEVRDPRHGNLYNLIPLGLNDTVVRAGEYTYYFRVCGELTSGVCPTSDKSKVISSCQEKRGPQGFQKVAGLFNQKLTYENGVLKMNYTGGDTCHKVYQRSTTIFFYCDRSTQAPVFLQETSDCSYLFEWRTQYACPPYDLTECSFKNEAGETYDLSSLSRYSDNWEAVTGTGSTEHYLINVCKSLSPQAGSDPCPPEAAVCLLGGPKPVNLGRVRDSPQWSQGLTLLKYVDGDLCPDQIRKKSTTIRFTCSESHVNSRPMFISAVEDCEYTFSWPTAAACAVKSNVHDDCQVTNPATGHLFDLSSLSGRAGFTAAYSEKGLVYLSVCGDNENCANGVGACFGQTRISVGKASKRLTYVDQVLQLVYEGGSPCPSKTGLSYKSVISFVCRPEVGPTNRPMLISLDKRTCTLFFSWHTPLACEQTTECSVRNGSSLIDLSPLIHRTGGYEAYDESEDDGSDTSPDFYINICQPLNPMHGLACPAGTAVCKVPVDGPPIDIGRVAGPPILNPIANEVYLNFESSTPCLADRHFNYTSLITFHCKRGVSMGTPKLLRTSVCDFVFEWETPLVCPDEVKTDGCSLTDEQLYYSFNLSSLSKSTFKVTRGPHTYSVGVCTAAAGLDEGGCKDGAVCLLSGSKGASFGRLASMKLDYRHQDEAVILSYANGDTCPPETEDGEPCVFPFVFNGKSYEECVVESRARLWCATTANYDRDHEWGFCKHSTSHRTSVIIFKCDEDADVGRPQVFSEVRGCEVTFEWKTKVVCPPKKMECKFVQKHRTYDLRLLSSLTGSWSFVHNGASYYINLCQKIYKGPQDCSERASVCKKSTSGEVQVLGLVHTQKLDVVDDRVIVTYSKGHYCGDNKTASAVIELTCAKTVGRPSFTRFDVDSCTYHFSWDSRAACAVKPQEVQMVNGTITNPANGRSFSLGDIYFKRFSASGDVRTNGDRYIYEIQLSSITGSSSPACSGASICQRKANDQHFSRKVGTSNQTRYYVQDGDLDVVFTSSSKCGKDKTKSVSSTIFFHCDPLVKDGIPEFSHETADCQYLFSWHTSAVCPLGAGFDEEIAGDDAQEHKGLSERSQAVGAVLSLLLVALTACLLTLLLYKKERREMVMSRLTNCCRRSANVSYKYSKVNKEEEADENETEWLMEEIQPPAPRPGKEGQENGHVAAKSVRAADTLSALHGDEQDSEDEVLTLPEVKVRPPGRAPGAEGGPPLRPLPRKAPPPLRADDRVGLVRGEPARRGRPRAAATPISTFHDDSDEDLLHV

Substance “zebrafish cathepsin D (Ctsd) from MLII (gnptab morphant) embryos (enzyme)” returned a percent of enzyme activity bound to the column in assay [1] of 5%. For “zebrafish cathepsin D (Ctsd) from WT animals (enzyme)”, the percent of enzyme activity bound to the column in assay [1] came to 16%; in assay [2] it was 24.2%. The substance “zebrafish cathepsin K (Ctsk) from MLII (gnptab morphant) embryos (enzyme)” had a percent of enzyme activity bound to the column in assay [1] of 17.2%.

On to “zebrafish cathepsin K (Ctsk) from WT animals (enzyme)”, for which the percent of enzyme activity bound to the column was 86% in assay [1] and 93.1% in assay [2].

Source of the values: publication PMC4808492.
